Each block holds one binder with its values, some of them ahead of it.
Biological target: T1, human guanylyl cyclase C (GCC) (human, UniProt P25092 24-430, limits assumed)
T1 construct: also called human GCC; STAR
Test: not described

T1 sequence (P25092 24-430 limits assumed): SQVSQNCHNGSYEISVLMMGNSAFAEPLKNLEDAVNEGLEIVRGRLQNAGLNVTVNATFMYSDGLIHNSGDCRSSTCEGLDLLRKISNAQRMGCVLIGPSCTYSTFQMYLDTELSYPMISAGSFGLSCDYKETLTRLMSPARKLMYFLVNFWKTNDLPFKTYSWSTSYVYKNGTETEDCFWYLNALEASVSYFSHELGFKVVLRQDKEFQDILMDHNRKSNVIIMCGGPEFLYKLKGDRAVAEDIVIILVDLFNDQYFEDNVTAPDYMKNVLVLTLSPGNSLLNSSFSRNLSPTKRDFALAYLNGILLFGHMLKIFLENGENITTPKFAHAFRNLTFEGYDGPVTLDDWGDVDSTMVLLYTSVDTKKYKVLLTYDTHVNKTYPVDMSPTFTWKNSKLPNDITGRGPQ

binding result: binds
B1: MS20 mouse monoclonal antibody (IgG2ak) (antibody, V domains shown)
VH: EVQLEESGPELVKPGASVKMSCKASGYTFTDYVISWVKQRTGQGLEWIGVTYPGSGNTYYGERFKGKATLTVDKMSNTAYMQLSSLTSEDSAVYFCTRNYGSFYALDYWGQGTSVTVSS
VL: DILMTQSPATLSVTPGDRVSLSCRASQSIRDYLHWYQHRSHESPRLLIKYASQSISGIPSRFSGSGSGSDFTLTINSVEPEDVGVYYCQNGHSFPTFGGGTKLEIK

binding result: binds
B2: MS7 mouse monoclonal antibody (IgG1k) (antibody, V domains shown)
VH: EVMLVESGGGLVKPGGSLKLSCAASGFTFSTYAMSWVRQTPEKRLEWVATITSGGSYTYYPDSVKGRFTISRDNAKNILYLQMSSLRSEDTAMYYCTRLRQIGLRGFSDYWGQGTTLTVSS
VL: DILMTQSPSSMYASLGERVTITCKASHDIKSYLSWYQQKPWRSPKTLIYYTTALADGVPSRFSGSGSGQDYSLTISSLESDDTATYYCLQHGESPYTFGGGTKLEIK

Source: patent US20160030595A1 (THOMAS JEFFERSON UNIVERSITY, published 2016)
